Here are results for 1 substance from publication PMC2999833.

Test [1] addresses Dok1 pY362 peptide (human). Description: SPR. For orientation: Surface plasmon resonance follows binding to a sensor surface in real time, without labels.
Test [2] has as its target Dok2 pY345 peptide (human). Description: SPR.

On to “Full-length recombinant His tagged human Nck1 (from UniProt P16333 1-377) (natural protein)”, for which the Kd in test [1] stood at 600 nM; in test [2], 3500 nM.

One may read the Kd as the free concentration of one partner at which half of the binding sites on the other are occupied at equilibrium, for simple one-to-one binding. High values mean weaker binding, low ones tighter binding.
